Measurements as given in paper PMC10881517.
Blank lines part the entries; values can stand above or below the substance they belong to.

How the values were obtained:
[1] = target: Mouse Cdh23 EC1-2 (mouse) (UniProt Q99PF4); experiment: AFM force-clamp spectroscopy (single molecule); Pcdh15 EC1-2 (WT or R113G) covalently on the cantilever, Cdh23 EC1-2 covalently on the coverslip (sortagging, Mal-PEG5000-NHS); contact 1-2 s, clamp 10 s; 25 mM HEPES, 100 mM NaCl, 50 mM KCl, 50 µM CaCl2; modified sliding-rebinding model fit of lifetime against force
Mouse Cdh23 EC1-2 (mouse), sequence (Q99PF4 24-228): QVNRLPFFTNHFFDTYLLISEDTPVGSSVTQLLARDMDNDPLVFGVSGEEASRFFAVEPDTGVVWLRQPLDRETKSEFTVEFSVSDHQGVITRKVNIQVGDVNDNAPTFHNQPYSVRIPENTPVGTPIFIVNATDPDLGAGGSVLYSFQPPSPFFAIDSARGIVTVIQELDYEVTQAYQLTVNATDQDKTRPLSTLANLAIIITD

[2] = target: Pcdh15 EC1-11 PICA (cis-dimer); experiment: AFM force-clamp spectroscopy (single molecule); Cdh23 EC1-27-Fc dimer covalently on the cantilever, Pcdh15 EC1-11 PICA dimer covalently on the coverslip (sortagging); cantilever retracted 70 nm before clamping, clamping time 20 s; 25 mM HEPES, 100 mM NaCl, 50 mM KCl, 50 µM CaCl2; lifetimes from exponential fits of survival probability, Bell model fits
Cdh23 EC1-10 = experiment: AFM force-clamp spectroscopy (single molecule); Pcdh15 EC1-2 covalently on the cantilever, Cdh23 variants (EC1-5, EC1-10, EC1-21, EC1-27) covalently on the coverslip (sortagging, Mal-PEG2-NHS); contact 1-2 s, clamp 10 s; 25 mM HEPES, 100 mM NaCl, 50 mM KCl, 50 µM CaCl2; modified sliding-rebinding model fit with unfolding probabilities
Cdh23 EC1-21 = experiment: as above
Cdh23 EC1-5 = experiment: as above
[3] = target: full-length Cdh23 EC1-27 (27 domains); experiment: as above

k+1 (intrinsic rate of reorganization, sliding-rebinding model) [1]: 0.6 s⁻¹ | k-1 (intrinsic off-rate at zero force, single bond of the sliding-rebinding model) [1]: 0.3 s⁻¹
Substance: Pcdh15 EC1-2 (R113G), Q99PJ1 27-259 (domain or fragment; other documents disagree on this pair)

Substance: Cdh23 EC1-27 with the Fc region on its C-terminus (cis-dimer) (Fc fusion)
intrinsic lifetime (τ0), low-force slip regime extrapolated to zero force [2]: 31.8 s | lifetime in the ideal-bond region (τ0) [2]: 6.3 s | lifetime of the short-lived component of the bi-exponential decay at high forces (>70 pN) [2]: 1 s | τ0 of the Bell fit of the second slip region [2]: 8.4 s

k+1 (intrinsic rate of reorganization, sliding-rebinding model) (Cdh23 EC1-10): 0.9 s⁻¹ | k+2 (intrinsic rate of rebinding, sliding-rebinding model) (Cdh23 EC1-10): 7.8 s⁻¹ | k-1 (intrinsic off-rate at zero force, single bond of the sliding-rebinding model) (Cdh23 EC1-10): 0.39 s⁻¹ | k+1 (intrinsic rate of reorganization, sliding-rebinding model) (Cdh23 EC1-21): 1.2 s⁻¹ | k+2 (intrinsic rate of rebinding, sliding-rebinding model) (Cdh23 EC1-21): 0.8 s⁻¹ | k-1 (intrinsic off-rate at zero force, single bond of the sliding-rebinding model) (Cdh23 EC1-21): 0.35 s⁻¹ | k+1 (intrinsic rate of reorganization, sliding-rebinding model) (Cdh23 EC1-5): 0.9 s⁻¹ | k+2 (intrinsic rate of rebinding, sliding-rebinding model) (Cdh23 EC1-5): 29.4 s⁻¹ | k-1 (intrinsic off-rate at zero force, single bond of the sliding-rebinding model) (Cdh23 EC1-5): 0.61 s⁻¹ | zero-force lifetime (Cdh23 EC1-5): 1.6 s | k+1 (intrinsic rate of reorganization, sliding-rebinding model) [3]: 0.5 s⁻¹ | k+2 (intrinsic rate of rebinding, sliding-rebinding model) [3]: 0.5 s⁻¹ | k-1 (intrinsic off-rate at zero force, single bond of the sliding-rebinding model) [3]: 0.29 s⁻¹ | zero-force lifetime [3]: 3.4 s
Substance: Mouse Pcdh15 EC1-2 (from UniProt Q99PJ1 27-259) (domain or fragment)
